Reference: CN112079917A (CANVEST WUHAN BIOTECHNOLOGY CO LTD, dated 2020)

Experiments:
BSA = BSA (UniProt P02769 25-607); test: ELISA, IgG form
[1] = target: 17SF HA毒株 (A/Guangdong/17SF003/2016) HA蛋白 (influenza A virus A/Guangdong/17SF003/2016 (H7N9)); test: ELISA, IgG form on HA protein
[2] = target: SH02 HA毒株 (A/Shanghai/2/2013 H7N9) HA蛋白 (influenza A virus A/Shanghai/2/2013 H7N9); test: ELISA, IgG form on HA protein

BSA, sequence (P02769 25-607 limits assumed): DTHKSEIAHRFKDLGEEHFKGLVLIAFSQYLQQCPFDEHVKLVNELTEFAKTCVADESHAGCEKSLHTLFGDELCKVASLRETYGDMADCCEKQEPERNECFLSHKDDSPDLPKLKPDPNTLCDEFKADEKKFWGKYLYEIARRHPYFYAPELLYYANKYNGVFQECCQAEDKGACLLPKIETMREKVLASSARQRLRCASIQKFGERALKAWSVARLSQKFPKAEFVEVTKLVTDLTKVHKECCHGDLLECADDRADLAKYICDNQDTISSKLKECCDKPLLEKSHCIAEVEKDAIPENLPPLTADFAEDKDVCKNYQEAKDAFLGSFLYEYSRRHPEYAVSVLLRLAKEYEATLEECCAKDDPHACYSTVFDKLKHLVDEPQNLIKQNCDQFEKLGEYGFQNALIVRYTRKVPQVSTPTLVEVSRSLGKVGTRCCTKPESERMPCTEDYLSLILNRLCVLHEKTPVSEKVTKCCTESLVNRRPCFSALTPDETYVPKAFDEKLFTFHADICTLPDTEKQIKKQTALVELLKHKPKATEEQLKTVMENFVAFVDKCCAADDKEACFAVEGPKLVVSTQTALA

B1: H7N9病毒特异性识别抗体P51H08 (IgG形式) (antibody, V domains shown)
VH: QVQLVQSGGGLVQPGGSMRLSCAASGFTFSSYAMSWVRQAPGKGLEWVSGISGSGGSTYYADSVKGRFTISRDNSKNTLHLPMNSLRADDTAVYYCAKDLNWWPDYWGQGTLVTVSS
VL: SYVLTQPPSVSVAPGKTASMTCGGNNIGSKRVHWYQQKPGQAPVLVVYNDNERPSAIPERFSGSNSGNTATLTVSRVEAGDEADYYCLVWDSSSLHRVFGGGTKLTVLG
BSA
  binding result: no binding
[1]
  EC50: 3.56 nM
[2]
  EC50: 1.65 nM
